Experimental data: doi:10.1101/2020.12.29.424758 (bioRxiv, 2020)

Target: YiiP from S. oneidensis (wild-type) (S. oneidensis, UniProt Q8E919)
Assay: SEC

Chain of YiiP from S. oneidensis (wild-type) (Q8E919 whole entry): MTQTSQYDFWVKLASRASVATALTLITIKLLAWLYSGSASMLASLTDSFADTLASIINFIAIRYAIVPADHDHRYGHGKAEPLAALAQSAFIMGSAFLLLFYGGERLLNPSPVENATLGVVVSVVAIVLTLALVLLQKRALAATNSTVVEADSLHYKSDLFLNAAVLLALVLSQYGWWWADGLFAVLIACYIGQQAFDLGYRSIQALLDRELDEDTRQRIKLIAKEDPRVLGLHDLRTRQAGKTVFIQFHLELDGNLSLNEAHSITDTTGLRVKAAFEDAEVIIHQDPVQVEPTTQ

binding result: binds
B1: Fab2 (Fab, V domains shown)
VH: EVQLVESGGGLVQPGGSLRLSCAASGFTIYSSSIHWVRQAPGKGLEWVASIYSSSGSTYYADSVKGRFTISADTSKNTAYLQMNSLRAEDTAVYYCARQSYSGLSPRRHWSYGAMDYWGQGTLVTVSS
VL: DIQMTQSPSSLSASVGDRVTITCRASQSVSSAVAWYQQKPGKAPKLLIYSASSLYSGVPSRFSGSRSGTDFTLTISSLQPEDFATYYCQQIWSWPLITFGQGTKVEIK
